Usually Kd stands for a measure of binding affinity in units of concentration. Broadly, the koff is the rate constant with which the complex falls apart. One may read the kon as the rate constant with which the complex forms.

Assay [1] deals with T1, recombinant human HER3-Fc chimera protein (R&D Systems) (human, UniProt P21860 20-643).
T1 construct: extracellular domain; Bought from R&D Systems; also called recombinant human HER3 extracellular domain; recombinant HER3; not shown: Fc part of the purchased chimera
The assay can be described thus: BLI, IRDye800CW-labeled antibody.

Assay [2] concerns the target HER3 (as used in the biolayer interferometry of Example 2) (UniProt P21860 20-643, limits assumed). The assay can be described thus: BLI. In general terms: In BLI a coated tip is dipped into the sample, and binding shifts an interference pattern.
Assay [3] deals with T1, recombinant human HER3-Fc chimera …. Nature of the assay: BLI (Octet Red), antibody on AR2G sensor, HER3-Fc 10-263 nM, 1:1 fit. Here is the method:
Binding kinetics were measured using an Octet Red instrument (ForteBio, Menlo Park, Calif.), following the manufacturer's protocol. Binding assays were performed in 96-well microtiter plates at 30° C. with sample plate orbital motion agitation at 1000 rpm. All washes, dilutions, and measurements were performed in phosphate buffered saline (PBS), pH 7.4. The IgG and antibody fragments were immobilized on amine-reactive second generation (AR2G) sensors using the manufacturer's protocol at pH 5 followed by quenching with 1 M ethanolamine, pH 8.5. […] Binding was monitored by placing sensors into wells for 5 min, followed by dissociation in PBS for 10 min. KD, kON, and kOFF were determined with ForteBio Data Analysis software v7.1.0.33 through locally fitting the processed data using a 1:1 binding model.

HER3 (as used in the biolayer interferometry of Example 2), sequence (P21860 20-643 limits assumed): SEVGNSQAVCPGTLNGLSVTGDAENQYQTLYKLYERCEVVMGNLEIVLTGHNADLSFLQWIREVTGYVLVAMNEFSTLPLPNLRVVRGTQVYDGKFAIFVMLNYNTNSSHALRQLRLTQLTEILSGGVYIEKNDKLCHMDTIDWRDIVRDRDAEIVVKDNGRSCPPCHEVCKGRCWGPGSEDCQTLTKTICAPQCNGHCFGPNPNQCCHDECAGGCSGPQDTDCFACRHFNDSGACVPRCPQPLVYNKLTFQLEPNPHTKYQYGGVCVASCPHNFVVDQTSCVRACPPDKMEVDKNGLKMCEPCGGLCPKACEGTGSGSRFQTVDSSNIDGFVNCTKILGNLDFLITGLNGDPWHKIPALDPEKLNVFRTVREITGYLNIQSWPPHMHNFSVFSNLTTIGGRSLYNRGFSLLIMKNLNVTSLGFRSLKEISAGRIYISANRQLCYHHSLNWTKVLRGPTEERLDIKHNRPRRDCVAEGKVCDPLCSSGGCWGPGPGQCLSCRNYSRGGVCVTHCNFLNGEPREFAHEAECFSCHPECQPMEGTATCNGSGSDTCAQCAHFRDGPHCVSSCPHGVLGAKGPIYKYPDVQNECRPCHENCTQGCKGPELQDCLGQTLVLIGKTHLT
T1 sequence (P21860 20-643, change not shown): as the sequence (P21860 20-643 limits assumed) above

B1: anti-HER3 scFv-CH3 labeled with IRDye800CW (other)
chain: SDIQMTQSPSSLSASVGDRVTITCRASQGISNYLAWYQQKPGKAPKLLIYAASSLQSGVPSRFSGSRSGTDFTLTISSLQPEDFATYYCQQYGWLPLTFGQGTKVEIKGGGGSGGGGSGGGGSEISEVQLVESGGGLVQPGGSLRLSCAASGFTFSSYGMHWVRQAPGKGLEWVAVISYDGSNKYYADSVKGRFTISRDNSKNTLYLQMNSLRAEDTAVYYCARTDPYSLGGYYFDYWGQGTLVTVSSEPKSCDKTHTCPPCPGQPREPQVYTLPPSREEMTKNQVSLTCLVKGFYPSDIAVEWESNGQPENNYKTTPPVLDSDGSFFLYSKLTVDKSRWQQGNVFSCSVMHEALHNHYTQKSLSLSPGK
notes: also called IRDye800CW-labeled scFv-CH3
For B1, the Kd in assay [1] was 2.1 nM.

B2: anti-HER3 scFv (scFv)
scFv: SDIQMTQSPSSLSASVGDRVTITCRASQGISNYLAWYQQKPGKAPKLLIYAASSLQSGVPSRFSGSRSGTDFTLTISSLQPEDFATYYCQQYGWLPLTFGQGTKVEIKGGGGSGGGGSGGGGSEISEVQLVESGGGLVQPGGSLRLSCAASGFTFSSYGMHWVRQAPGKGLEWVAVISYDGSNKYYADSVKGRFTISRDNSKNTLYLQMNSLRAEDTAVYYCARTDPYSLGGYYFDYWGQGTLVTVSS
notes: VL-(GGGGS)3-VH of HER3-3, expressed in E. coli
For the molecule B2, in assay [2], the equilibrium dissociation constant (Kd) is 21.6 nM, the koff was found to be 0.00127 s⁻¹ and the association rate constant (kon) amounted to 60400 M⁻¹ s⁻¹. For the same molecule, in assay [3], the Kd is 20 nM, the koff was 0.00054 s⁻¹ and the kon worked out at 33000 M⁻¹ s⁻¹.

B3: anti-HER3 scFv labeled with IRDye800CW (scFv)
scFv: B2 scFv
modifications: IRDye800CW-NHS label, 1-2 dye molecules per fragment, sites not stated
notes: m4 labelled with IRDye800CW; also called IRDye800CW-labeled scFv
As for B3, the Kd in assay [1] turned out to be 29 nM.

B4: anti-HER3 diabody (other)
chain: SDIQMTQSPSSLSASVGDRVTITCRASQGISNYLAWYQQKPGKAPKLLIYAASSLQSGVPSRFSGSRSGTDFTLTISSLQPEDFATYYCQQYGWLPLTFGQGTKVEIKGGGGSEISEVQLVESGGGLVQPGGSLRLSCAASGFTFSSYGMHWVRQAPGKGLEWVAVISYDGSNKYYADSVKGRFTISRDNSKNTLYLQMNSLRAEDTAVYYCARTDPYSLGGYYFDYWGQGTLVTVSS
notes: VL-GGGGS-VH of HER3-3; bivalent (51.6 kDa), expressed in E. coli
Regarding B4, in assay [3], the Kd was found to be 3 nM, the koff came out at 0.00044 s⁻¹ and the kon was 150000 M⁻¹ s⁻¹.

B5: anti-HER3 diabody labeled with IRDye800CW (other)
chain: B4 chain
modifications: IRDye800CW-NHS label, 1-2 dye molecules per fragment, sites not stated
notes: m5 labelled with IRDye800CW; also called IRDye800CW-labeled diabody
Regarding B5, in assay [1], the Kd came out at 2.4 nM.

For the origin of these results see US20200207868A1 (UNIVERSITY OF SASKATCHEWAN, published 2020).
